From the supplement of paper PMC9112550, “Optimization of the antimicrobial peptide Bac7 by deep mutational scanning” (BMC Biology, 2022)

Tested on: Escherichia coli TOP10
Test: shrunken log2 fold change of peptide-encoding DNA abundance (4.5 h post-induction vs induction); higher = less antimicrobial activity (less host growth inhibition)
Details: time post-induction: 4.5 h; library: site-saturation at positions 5, 18, 19, 20
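Further: peptides expressed intracellularly from a pBAD plasmid library in pooled LB shake-flask culture, induced with 0.3% L-arabinose, DNA abundance read by NGS, three biological replicates, DESeq2 with apeglm shrinkage.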

Sequence: RRIRPRPPRLPRPRPRPTCFPRP
- shrunken log2 fold change: 0.0572

Sequence: RRIRQRPPRLPRPRPRPGFEPRP
- shrunken log2 fold change: 0.809

Sequence: RRIRNRPPRLPRPRPRPCRMPRP
- shrunken log2 fold change: -0.195

Sequence: RRIRMRPPRLPRPRPRPRLHPRP
- shrunken log2 fold change: 0.721

Sequence: RRIRIRPPRLPRPRPRPFGMPRP
- shrunken log2 fold change: -0.498

Sequence: RRIRARPPRLPRPRPRPVAVPRP
- shrunken log2 fold change: 0.445

Sequence: RRIRLRPPRLPRPRPRPHNIPRP
- shrunken log2 fold change: -0.049

Sequence: RRIRTRPPRLPRPRPRPHYYPRP
- shrunken log2 fold change: -0.744

Sequence: RRIRSRPPRLPRPRPRPHLAPRP
- shrunken log2 fold change: -0.0617

Sequence: RRIRQRPPRLPRPRPRPLPFPRP
- shrunken log2 fold change: -0.782

Sequence: RRIRTRPPRLPRPRPRPSYWPRP
- shrunken log2 fold change: -0.153

Sequence: RRIRKRPPRLPRPRPRPTFLPRP
- shrunken log2 fold change: 0.228

Sequence: RRIRIRPPRLPRPRPRPSHDPRP
- shrunken log2 fold change: -0.527

Sequence: RRIRFRPPRLPRPRPRPKCHPRP
- shrunken log2 fold change: -0.42

Sequence: RRIRMRPPRLPRPRPRPGGIPRP
- shrunken log2 fold change: 0.545

Sequence: RRIRWRPPRLPRPRPRPETIPRP
- shrunken log2 fold change: 0.322

Sequence: RRIRQRPPRLPRPRPRPSHPPRP
- shrunken log2 fold change: -0.272

Sequence: RRIRQRPPRLPRPRPRPIWYPRP
- shrunken log2 fold change: 0.0288

Sequence: RRIRKRPPRLPRPRPRPNLHPRP
- shrunken log2 fold change: -0.184

Sequence: RRIRGRPPRLPRPRPRPVWKPRP
- shrunken log2 fold change: 0.113

Sequence: RRIRERPPRLPRPRPRPKEKPRP
- shrunken log2 fold change: 0.121

Sequence: RRIRKRPPRLPRPRPRPCIEPRP
- shrunken log2 fold change: -0.00715

Sequence: RRIRIRPPRLPRPRPRPKPHPRP
- shrunken log2 fold change: -0.0472

Sequence: RRIRERPPRLPRPRPRPHTVPRP
- shrunken log2 fold change: -0.346

Sequence: RRIRMRPPRLPRPRPRPRFYPRP
- shrunken log2 fold change: 0.322

Sequence: RRIRIRPPRLPRPRPRPSTMPRP
- shrunken log2 fold change: -1.18

Sequence: RRIRTRPPRLPRPRPRPWQEPRP
- shrunken log2 fold change: 0.0948

Sequence: RRIRWRPPRLPRPRPRPRTAPRP
- shrunken log2 fold change: 0.564

Sequence: RRIRFRPPRLPRPRPRPTHHPRP
- shrunken log2 fold change: 0.781

Sequence: RRIRYRPPRLPRPRPRPNKSPRP
- shrunken log2 fold change: -0.941

Sequence: RRIRYRPPRLPRPRPRPQCGPRP
- shrunken log2 fold change: -0.46

Sequence: RRIRCRPPRLPRPRPRPAASPRP
- shrunken log2 fold change: 0.246

Sequence: RRIRSRPPRLPRPRPRPYYGPRP
- shrunken log2 fold change: -0.197

Sequence: RRIRARPPRLPRPRPRPQRKPRP
- shrunken log2 fold change: 0.365

Sequence: RRIRHRPPRLPRPRPRPGIAPRP
- shrunken log2 fold change: -0.0902

Sequence: RRIRLRPPRLPRPRPRPIFPPRP
- shrunken log2 fold change: 0.0478

Sequence: RRIRERPPRLPRPRPRPSWDPRP
- shrunken log2 fold change: -0.247

Sequence: RRIRYRPPRLPRPRPRPCSHPRP
- shrunken log2 fold change: -0.566

Sequence: RRIRIRPPRLPRPRPRPEVTPRP
- shrunken log2 fold change: -0.0113

Sequence: RRIRERPPRLPRPRPRPLHYPRP
- shrunken log2 fold change: -0.249

Sequence: RRIRWRPPRLPRPRPRPNMTPRP
- shrunken log2 fold change: 0.0683

Sequence: RRIRTRPPRLPRPRPRPAFWPRP
- shrunken log2 fold change: 0.26

Sequence: RRIRPRPPRLPRPRPRPRPQPRP
- shrunken log2 fold change: 0.634

Sequence: RRIRQRPPRLPRPRPRPECMPRP
- shrunken log2 fold change: -0.0252

Sequence: RRIRWRPPRLPRPRPRPDEAPRP
- shrunken log2 fold change: 0.0325

Sequence: RRIRWRPPRLPRPRPRPCDMPRP
- shrunken log2 fold change: -0.173

Sequence: RRIRSRPPRLPRPRPRPWKKPRP
- shrunken log2 fold change: -0.162

Sequence: RRIRDRPPRLPRPRPRPPNAPRP
- shrunken log2 fold change: 0.617

Sequence: RRIRCRPPRLPRPRPRPAQWPRP
- shrunken log2 fold change: 0.696

Sequence: RRIRERPPRLPRPRPRPPEAPRP
- shrunken log2 fold change: 0.192

Sequence: RRIRGRPPRLPRPRPRPVYNPRP
- shrunken log2 fold change: 0.0349

Sequence: RRIRTRPPRLPRPRPRPIYIPRP
- shrunken log2 fold change: -0.949

Sequence: RRIRIRPPRLPRPRPRPANKPRP
- shrunken log2 fold change: -0.222

Sequence: RRIRYRPPRLPRPRPRPVDMPRP
- shrunken log2 fold change: -0.0154

Sequence: RRIRKRPPRLPRPRPRPDTDPRP
- shrunken log2 fold change: 0.198

Sequence: RRIRWRPPRLPRPRPRPHQAPRP
- shrunken log2 fold change: 0.257

Sequence: RRIRMRPPRLPRPRPRPYPEPRP
- shrunken log2 fold change: -0.121

Sequence: RRIRARPPRLPRPRPRPHDPPRP
- shrunken log2 fold change: 0.402

Sequence: RRIRPRPPRLPRPRPRPVSCPRP
- shrunken log2 fold change: -0.095

Sequence: RRIRRRPPRLPRPRPRPHSLPRP
- shrunken log2 fold change: -0.113

Sequence: RRIRCRPPRLPRPRPRPHLWPRP
- shrunken log2 fold change: 0.129

Sequence: RRIRGRPPRLPRPRPRPDWHPRP
- shrunken log2 fold change: 0.238

Sequence: RRIRQRPPRLPRPRPRPEDSPRP
- shrunken log2 fold change: -0.0908

Sequence: RRIRRRPPRLPRPRPRPSDQPRP
- shrunken log2 fold change: 0.0918

Sequence: RRIRGRPPRLPRPRPRPTCVPRP
- shrunken log2 fold change: 1.04

Sequence: RRIRSRPPRLPRPRPRPTTHPRP
- shrunken log2 fold change: 0.0655

Sequence: RRIRCRPPRLPRPRPRPHRNPRP
- shrunken log2 fold change: -0.791

Sequence: RRIRHRPPRLPRPRPRPNANPRP
- shrunken log2 fold change: -0.801

Sequence: RRIRLRPPRLPRPRPRPLQGPRP
- shrunken log2 fold change: -0.0384

Sequence: RRIRFRPPRLPRPRPRPPWDPRP
- shrunken log2 fold change: 0.195

Sequence: RRIRIRPPRLPRPRPRPREYPRP
- shrunken log2 fold change: -0.565

Sequence: RRIRKRPPRLPRPRPRPFGTPRP
- shrunken log2 fold change: -0.0368

Sequence: RRIRTRPPRLPRPRPRPAHYPRP
- shrunken log2 fold change: -0.227

Sequence: RRIRMRPPRLPRPRPRPRAPPRP
- shrunken log2 fold change: 1.18

Sequence: RRIRQRPPRLPRPRPRPPQGPRP
- shrunken log2 fold change: 0.434

Sequence: RRIRCRPPRLPRPRPRPYMRPRP
- shrunken log2 fold change: -0.142

Sequence: RRIRKRPPRLPRPRPRPYKYPRP
- shrunken log2 fold change: -0.00882

Sequence: RRIRYRPPRLPRPRPRPHKWPRP
- shrunken log2 fold change: -0.581

Sequence: RRIRERPPRLPRPRPRPEWKPRP
- shrunken log2 fold change: 0.0685

Sequence: RRIRRRPPRLPRPRPRPSLFPRP
- shrunken log2 fold change: 0.196

Sequence: RRIRYRPPRLPRPRPRPESGPRP
- shrunken log2 fold change: -0.0308

Sequence: RRIRNRPPRLPRPRPRPNSCPRP
- shrunken log2 fold change: -0.137

Sequence: RRIRHRPPRLPRPRPRPMADPRP
- shrunken log2 fold change: 0.0417

Sequence: RRIRHRPPRLPRPRPRPFELPRP
- shrunken log2 fold change: -0.0176

Sequence: RRIRPRPPRLPRPRPRPMTEPRP
- shrunken log2 fold change: -0.0153

Sequence: RRIRSRPPRLPRPRPRPSGMPRP
- shrunken log2 fold change: -0.311

Sequence: RRIRDRPPRLPRPRPRPQILPRP
- shrunken log2 fold change: 0.132

Sequence: RRIRPRPPRLPRPRPRPCQSPRP
- shrunken log2 fold change: -0.123

Sequence: RRIRQRPPRLPRPRPRPVKIPRP
- shrunken log2 fold change: 0.352

Sequence: RRIRLRPPRLPRPRPRPSNEPRP
- shrunken log2 fold change: -0.299

Sequence: RRIRVRPPRLPRPRPRPLMSPRP
- shrunken log2 fold change: 0.0187

Sequence: RRIRGRPPRLPRPRPRPNVMPRP
- shrunken log2 fold change: 0.114

Sequence: RRIRWRPPRLPRPRPRPLVAPRP
- shrunken log2 fold change: 0.815

Sequence: RRIRHRPPRLPRPRPRPGCWPRP
- shrunken log2 fold change: 0.434

Sequence: RRIRIRPPRLPRPRPRPTIEPRP
- shrunken log2 fold change: -0.44

Sequence: RRIRFRPPRLPRPRPRPSMLPRP
- shrunken log2 fold change: -0.47

Sequence: RRIRDRPPRLPRPRPRPSVTPRP
- shrunken log2 fold change: 0.0709

Sequence: RRIRIRPPRLPRPRPRPSIDPRP
- shrunken log2 fold change: -0.342

Sequence: RRIRHRPPRLPRPRPRPNKYPRP
- shrunken log2 fold change: -0.782

Sequence: RRIRYRPPRLPRPRPRPMLSPRP
- shrunken log2 fold change: 0.0215

Sequence: RRIRNRPPRLPRPRPRPCACPRP
- shrunken log2 fold change: -0.0293

Sequence: RRIRQRPPRLPRPRPRPYSRPRP
- shrunken log2 fold change: -0.0567

Sequence: RRIRYRPPRLPRPRPRPRIMPRP
- shrunken log2 fold change: -1.06

Sequence: RRIRERPPRLPRPRPRPMDNPRP
- shrunken log2 fold change: -0.626

Sequence: RRIRLRPPRLPRPRPRPVGTPRP
- shrunken log2 fold change: 0.00938

Sequence: RRIRKRPPRLPRPRPRPGAAPRP
- shrunken log2 fold change: 1.54

Sequence: RRIRRRPPRLPRPRPRPKVVPRP
- shrunken log2 fold change: 0.0343

Sequence: RRIRGRPPRLPRPRPRPELTPRP
- shrunken log2 fold change: 2.02

Sequence: RRIRNRPPRLPRPRPRPWRKPRP
- shrunken log2 fold change: -0.0392

Sequence: RRIRERPPRLPRPRPRPVNVPRP
- shrunken log2 fold change: -0.531

Sequence: RRIRNRPPRLPRPRPRPTRVPRP
- shrunken log2 fold change: 0.376

Sequence: RRIRMRPPRLPRPRPRPCNTPRP
- shrunken log2 fold change: -0.238

Sequence: RRIRCRPPRLPRPRPRPKMNPRP
- shrunken log2 fold change: -0.415

Sequence: RRIRYRPPRLPRPRPRPESIPRP
- shrunken log2 fold change: -0.42

Sequence: RRIRIRPPRLPRPRPRPNQKPRP
- shrunken log2 fold change: 0.0249

Sequence: RRIRQRPPRLPRPRPRPIFLPRP
- shrunken log2 fold change: 0.805

Sequence: RRIRNRPPRLPRPRPRPMTQPRP
- shrunken log2 fold change: -0.249

Sequence: RRIRNRPPRLPRPRPRPEEAPRP
- shrunken log2 fold change: 0.612

Sequence: RRIRMRPPRLPRPRPRPALSPRP
- shrunken log2 fold change: 0.539

Sequence: RRIRLRPPRLPRPRPRPRWSPRP
- shrunken log2 fold change: 0.129

Sequence: RRIRGRPPRLPRPRPRPQSKPRP
- shrunken log2 fold change: 0.348

Sequence: RRIRFRPPRLPRPRPRPKPAPRP
- shrunken log2 fold change: 0.739

Sequence: RRIRMRPPRLPRPRPRPTYSPRP
- shrunken log2 fold change: 0.0196

Sequence: RRIRNRPPRLPRPRPRPNMDPRP
- shrunken log2 fold change: -0.0443

Sequence: RRIRPRPPRLPRPRPRPETRPRP
- shrunken log2 fold change: 0.187

Sequence: RRIRDRPPRLPRPRPRPVHMPRP
- shrunken log2 fold change: 0.111

Sequence: RRIRYRPPRLPRPRPRPLIKPRP
- shrunken log2 fold change: -0.386

Sequence: RRIRTRPPRLPRPRPRPFTCPRP
- shrunken log2 fold change: 0.0121

Sequence: RRIRSRPPRLPRPRPRPSTYPRP
- shrunken log2 fold change: -0.405

Sequence: RRIRMRPPRLPRPRPRPICLPRP
- shrunken log2 fold change: -0.322

Sequence: RRIRTRPPRLPRPRPRPHAHPRP
- shrunken log2 fold change: -0.117

Sequence: RRIRVRPPRLPRPRPRPLWVPRP
- shrunken log2 fold change: -0.147

Sequence: RRIRARPPRLPRPRPRPLSIPRP
- shrunken log2 fold change: -0.308

Sequence: RRIRCRPPRLPRPRPRPQESPRP
- shrunken log2 fold change: 0.192

Sequence: RRIRERPPRLPRPRPRPQEYPRP
- shrunken log2 fold change: -0.01

Sequence: RRIRLRPPRLPRPRPRPICPPRP
- shrunken log2 fold change: 0.00212

Sequence: RRIRCRPPRLPRPRPRPEYKPRP
- shrunken log2 fold change: -0.415

Sequence: RRIRQRPPRLPRPRPRPDGFPRP
- shrunken log2 fold change: -0.0107

Sequence: RRIRGRPPRLPRPRPRPCEKPRP
- shrunken log2 fold change: 0.797

Sequence: RRIRKRPPRLPRPRPRPVAAPRP
- shrunken log2 fold change: 0.721

Sequence: RRIRKRPPRLPRPRPRPMHIPRP
- shrunken log2 fold change: 0.078

Sequence: RRIRIRPPRLPRPRPRPICWPRP
- shrunken log2 fold change: 0.307

Sequence: RRIRFRPPRLPRPRPRPLMQPRP
- shrunken log2 fold change: -0.0117

Sequence: RRIRYRPPRLPRPRPRPCPHPRP
- shrunken log2 fold change: -0.0263

Sequence: RRIRFRPPRLPRPRPRPLWLPRP
- shrunken log2 fold change: -0.0557

Sequence: RRIRARPPRLPRPRPRPMWSPRP
- shrunken log2 fold change: 0.0725

Sequence: RRIRMRPPRLPRPRPRPSGHPRP
- shrunken log2 fold change: 0.0431

Sequence: RRIRWRPPRLPRPRPRPQENPRP
- shrunken log2 fold change: -0.0785

Sequence: RRIRYRPPRLPRPRPRPCVCPRP
- shrunken log2 fold change: -1.24

Sequence: RRIRKRPPRLPRPRPRPRCRPRP
- shrunken log2 fold change: 0.506
